Several values for one entry are separate records, joined by “and”; a condition that tells them apart may be missing. Identical values can stand only once.

Experiment [1] deals with major capsid protein (MCP) of varicella-zoster virus (varicella-zoster virus (strain vOka)) (UniProt P09245). Nature of the experiment: cryo-EM structure; VZV A-capsids purified from infected MRC-5 cells, in 1x PBS; single-particle reconstruction with block-based (localized) reconstruction of an asymmetric unit, 3.7 Å.
Experiment [2] concerns the target Tri1 protein of the varicella-zoster virus heterotriplex (varicella-zoster virus (strain vOka)). The experiment is described as above.

As a reminder, the stoichiometry N is a count of units in the complex or per binding partner. For the substance “major capsid protein (MCP) of varicella-zoster virus (from UniProt P09245 1-1396) (natural protein)”, the stoichiometry N in experiment [1] is 5 and 6.

Substance “Tri2 protein of the varicella-zoster virus heterotriplex (natural protein)” had a stoichiometry N (Tri2 per Tri1) in experiment [2] of 2.

Values taken from article PMC7508878.
